Molecular target: T1, murine PD-L1 (murine, UniProt Q9EP73 19-238, limits assumed)
T1 construct: also called PD-Ll; mouse target protein
Assay: not described; stated in Example 1

T1 sequence (Q9EP73 19-238 limits assumed): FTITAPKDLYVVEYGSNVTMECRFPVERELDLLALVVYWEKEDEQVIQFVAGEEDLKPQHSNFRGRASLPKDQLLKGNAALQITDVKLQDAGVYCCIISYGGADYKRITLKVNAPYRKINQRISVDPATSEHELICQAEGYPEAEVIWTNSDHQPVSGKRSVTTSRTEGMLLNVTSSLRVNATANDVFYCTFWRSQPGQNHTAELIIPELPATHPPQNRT

binding result: binds
B1: anti-murine PD-L1 clone 178G7 (antibody, V domains shown)
VH: QVQLQQSGADLAKPGSSVKISCKASGYNFNSYYINWIKQTTGQGLEYIGYINTVSGTTKYSEKFKGKATLTVDKSSSTAFMQLSSLTPDDSAVYYCARGTIVLDDYWGQGVKVTVSS
VL: DIVMTQTPSSQAVSAGEKVTMSCKSSQSLLYNEKKKNYLAWYQQKPGQSPKLLIYWASTRESGVPDRFLGSGSGTDFTLTINSVQAEDLAVYYCQQSYDFPRTFGGGTKLELKR
notes: also called anti-PD-L1 antibody; anti-PD-L1 therapy

Reference: patent WO2017205216A1 (dated 2017)
